In US20100304465A1:

What was measured:
Assay in all cases: cell-based or functional assay
[1] = biological target: micro-plasmin (UniProt P00747)
[2] = biological target: mini-plasmin (human) (UniProt P00747)
[3] = biological target: delta-plasmin (human (recombinant deletion mutant of human plasminogen, made in E. coli)) (UniProt P00747)
[4] = biological target: plasmin (human) (UniProt P00747)

Row | inhibition rate (22° C., PBS, pH 7.4; residual S-2251 activity) [1] [M^-1s^-1] | inhibition rate (second separate experiment; residual S-2251 activity) [1] [M⁻¹ s⁻¹] | inhibition rate (22° C., PBS, pH 7.4; residual S-2251 activity) [2] [M^-1s^-1] | fold change of inhibition rate against micro-plasmin or mini-plasmin [3] [fold] | inhibition rate (22° C., PBS, pH 7.4; residual S-2251 activity) [3] [M^-1s^-1] | inhibition rate (22° C., PBS, pH 7.4) [1] [M^-1s^-1] | inhibition rate (22° C., PBS, pH 7.4) [2] [M^-1s^-1] | inhibition rate (22° C., PBS, pH 7.4) [4] [M^-1s^-1] | inhibition rate (22° C., PBS, pH 7.4) [3] [M^-1s^-1] | Binder
1 | 180000 | 310000 | 240000 | 40 | 1.1e+07 | – | – | – | – | α2-antiplasmin (protein, UniProt P08697 40-491, looked up) NQEQVSPLTLLKLGNQEPGGQTALKSPPGVCSRDPTPEQTHRLARAMMAFTADLFSLVAQTSTCPNLILSPLSVALALSHLALGAQNHTLQRLQQVLHAGSGPCLPHLLSRLCQDLGPGAFRLAARMYLQKGFPIKEDFLEQSEQLFGAKPVSLTGKQEDDLANINQWVKEATEGKIQEFLSGLPEDTVLLLLNAIHFQGFWRNKFDPSLTQRDSFHLDEQFTVPVEMMQARTYPLRWFLLEQPEIQVAHFPFKNNMSFVVLVPTHFEWNVSQVLANLSWDTLHPPLVWERPTKVRLPKLYLKHQMDLVATLSQLGLQELFQAPDLRGISEQSLVVSGVQHQSTLELSEVGVEAAAATSIAMSRMSLSSFSVNRPFLFFIFEDTTGLPLFVGSVRNPNPSAPRELKEQQDSPGNKDFLQSLKGFPRGDKLFGPDLKLVPPMEEDYPQFGSPK
2 | – | – | – | – | – | 780000 | 750000 | 650000 | 760000 | α2-macroglobulin (protein, UniProt P01023 24-1474, looked up) SVSGKPQYMVLVPSLLHTETTEKGCVLLSYLNETVTVSASLESVRGNRSLFTDLEAENDVLHCVAFAVPKSSSNEEVMFLTVQVKGPTQEFKKRTTVMVKNEDSLVFVQTDKSIYKPGQTVKFRVVSMDENFHPLNELIPLVYIQDPKGNRIAQWQSFQLEGGLKQFSFPLSSEPFQGSYKVVVQKKSGGRTEHPFTVEEFVLPKFEVQVTVPKIITILEEEMNVSVCGLYTYGKPVPGHVTVSICRKYSDASDCHGEDSQAFCEKFSGQLNSHGCFYQQVKTKVFQLKRKEYEMKLHTEAQIQEEGTVVELTGRQSSEITRTITKLSFVKVDSHFRQGIPFFGQVRLVDGKGVPIPNKVIFIRGNEANYYSNATTDEHGLVQFSINTTNVMGTSLTVRVNYKDRSPCYGYQWVSEEHEEAHHTAYLVFSPSKSFVHLEPMSHELPCGHTQTVQAHYILNGGTLLGLKKLSFYYLIMAKGGIVRTGTHGLLVKQEDMKGHFSISIPVKSDIAPVARLLIYAVLPTGDVIGDSAKYDVENCLANKVDLSFSPSQSLPASHAHLRVTAAPQSVCALRAVDQSVLLMKPDAELSASSVYNLLPEKDLTGFPGPLNDQDNEDCINRHNVYINGITYTPVSSTNEKDMYSFLEDMGLKAFTNSKIRKPKMCPQLQQYEMHGPEGLRVGFYESDVMGRGHARLVHVEEPHTETVRKYFPETWIWDLVVVNSAGVAEVGVTVPDTITEWKAGAFCLSEDAGLGISSTASLRAFQPFFVELTMPYSVIRGEAFTLKATVLNYLPKCIRVSVQLEASPAFLAVPVEKEQAPHCICANGRQTVSWAVTPKSLGNVNFTVSAEALESQELCGTEVPSVPEHGRKDTVIKPLLVEPEGLEKETTFNSLLCPSGGEVSEELSLKLPPNVVEESARASVSVLGDILGSAMQNTQNLLQMPYGCGEQNMVLFAPNIYVLDYLNETQQLTPEIKSKAIGYLNTGYQRQLNYKHYDGSYSTFGERYGRNQGNTWLTAFVLKTFAQARAYIFIDEAHITQALIWLSQRQKDNGCFRSSGSLLNNAIKGGVEDEVTLSAYITIALLEIPLTVTHPVVRNALFCLESAWKTAQEGDHGSHVYTKALLAYAFALAGNQDKRKEVLKSLNEEAVKKDNSVHWERPQKPKAPVGHFYEPQAPSAEVEMTSYVLLAYLTAQPAPTSEDLTSATNIVKWITKQQNAQGGFSSTQDTVVALHALSKYGAATFTRTGKAAQVTIQSSGTFSSKFQVDNNNRLLLQQVSLPELPGEYSMKVTGEGCVYLQTSLKYNILPEKEEFPFALGVQTLPQTCDEPKAHTSFQISLSVSYTGSRSASNMAIVDVKMVSGFIPLKPTVKMLERSNHVSRTEVSSNHVLIYLDKVSNQTLSLFFTVLQDVPVRDLKPAIVKVYDYYETDEFAIAEYNAPCSKDLGNA
